Source: article PMC2597217

Legend:
FoxO1 DBD 151-266 [1] = target: T1, FoxO1 DBD 151-266 (human, UniProt Q12778 151-266); experiment: EMSA
FoxO1 DBD 151-266 [2] = target: T1, FoxO1 DBD 151-266; experiment: crystal structure
FoxO1 DBD 151-256 = FoxO1 DBD 151-256 (human, UniProt Q12778 151-256); experiment: EMSA
FoxO1 DBD 151-256, sequence (Q12778 151-256): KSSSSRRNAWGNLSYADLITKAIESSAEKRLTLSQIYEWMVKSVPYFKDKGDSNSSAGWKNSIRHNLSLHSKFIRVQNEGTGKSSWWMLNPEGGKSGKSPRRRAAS

T1 sequence (Q12778 151-266): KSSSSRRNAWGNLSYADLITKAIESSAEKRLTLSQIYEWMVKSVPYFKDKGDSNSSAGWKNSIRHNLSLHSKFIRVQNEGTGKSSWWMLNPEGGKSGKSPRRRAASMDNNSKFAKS

B1: DBE1 (dsDNA)
DNA 1: TGGTTTGTTTACCTTG
DNA 2: CAAGGTAAACAAACCA
FoxO1 DBD 151-266 [1]
  binding signal: 2 fold affinity vs IRE

B2: DBE2 (dsDNA)
DNA 1: TCTTGTTTACATTTTG
DNA 2: CAAAATGTAAACAAGA
FoxO1 DBD 151-266 [1]
  binding signal: 5 fold affinity vs DBE1

B3: IRE (dsDNA)
DNA 1: TGGTTTGTTTTGCTTG
DNA 2: CAAGCAAAACAAACCA
FoxO1 DBD 151-266 [2]
  binding result: binds
FoxO1 DBD 151-256
  binding result: binds
